From US20080260789A1

Legend:
[1] = target: Cav channels of P. americana DUM neurons (Periplaneta americana); experiment: cell-based or functional assay
[2] = target: α-subunit of the P. americana high conductance calcium-activated potassium channel (pSlo) (Periplaneta americana); experiment: cell-based or functional assay

rU-ACTX-Hv1a (peptide)
IC50 of block of Cav currents in DUM neurons, whole-cell patch clamp [1]: 0.409 µM
IC50 of block of pSlo currents in HEK293 cells, whole-cell patch clamp [2]: 0.579 µM
